From publication PMC3954644 (Biochemistry, 2014)

B1: human Δ1-pyrroline-5-carboxylate dehydrogenase (HsP5CDH, ALDH4A1), residues 18-563, tag-free (enzyme, UniProt P30038 18-563, looked up)
chain: TGAGLRWKHTSSLKVANEPVLAFTQGSPERDALQKALKDLKGRMEAIPCVVGDEEVWTSDVQYQVSPFNHGHKVAKFCYADKSLLNKAIEAALAARKEWDLKPIADRAQIFLKAADMLSGPRRAEILAKTMVGQGKTVIQAEIDAAAELIDFFRFNAKYAVELEGQQPISVPPSTNSTVYRGLEGFVAAISPFNFTAIGGNLAGAPALMGNVVLWKPSDTAMLASYAVYRILREAGLPPNIIQFVPADGPLFGDTVTSSEHLCGINFTGSVPTFKHLWKQVAQNLDRFHTFPRLAGECGGKNFHFVHRSADVESVVSGTLRSAFEYGGQKCSACSRLYVPHSLWPQIKGRLLEEHSRIKVGDPAEDFGTFFSAVIDAKSFARIKKWLEHARSSPSLTILAGGKCDDSVGYFVEPCIVESKDPQEPIMKEEIFGPVLSVYVYPDDKYKETLQLVDSTTSYGLTGAVFSQDKDVVQEATKVLRNAAGNFYINDKSTGSIVGQQPFGGARASGTNDKPGGPHYILRWTSPQVIKETHKPLGDWSYAYMQ
B2: Put2p mutant W193A, residues 23-575, His tag removed (enzyme, S. cerevisiae, UniProt P07275 23-575, looked up)
chain: KPPKHIRNEPVKPFRNIDLKDWDLLRASLMKFKSSSLEVPLVINGERIYDNNERALFPQTNPANHQQVLANVTQATEKDVMNAVKAAKDAKKDWYNLPFYDRSAIFLKAADLISTKYRYDMLAATMLGQGKNVYQAEIDCITELSDFFRYYVKYASDLYAQQPVESADGTANKAEYRPLEGFVYAVSPFNFTAIAANLIGAPALMGNTVVWKPSQTAALSNYLLMTVLEEAGLPKGVINFIPGDPVQVTDQVLADKDFGALHFTGSTNVFKSLYGKIQSGVVEGKYRDYPRIIGETGGKNFHLVHPSANISHAVLSTIRGTFEFQGQKCSAASRLYLPESKSEEFLSDMFGILQSQNVVPMNTSASPISGGNLRGFMGPVIHEQSFDKLVKVIEDAKKDPELEILYGGQYDKSQGWFVGPTVIKAKRPDHPYMSTEFFGPILTVYEYPDTEFNEICDIIDNTSQYALTGAIFAKDRKAIEYADEKLKFSAGNFYINDKCTGAVVSQQWFGGARMSGTDDKAGGPNILSRFVSIRNTKENFYELTDFKYPSNYE

Assays:
[1] = target: the molecule itself; assay: crystal structure
[2] = target: the molecule itself; assay: AUC

| Protein | stoichiometry N [1] | stoichiometry N [2] |
| --- | --- | --- |
| B1 | 2 | – |
| B2 | – | 2 |
